Assay results taken from patent US20230250154A1 (CYTONICS, published 2023).
Values belong to the binder of their own block, whether it stands above or below them.

What was measured:
Assay in all cases: cell-based or functional assay
MMP3 = MMP3 (human, UniProt P08254 100-477, limits assumed)
ADAMTS5 = target: T1, ADAMTS5 (human, UniProt Q9UNA0 262-622, limits assumed)
T1 sequence (looked up): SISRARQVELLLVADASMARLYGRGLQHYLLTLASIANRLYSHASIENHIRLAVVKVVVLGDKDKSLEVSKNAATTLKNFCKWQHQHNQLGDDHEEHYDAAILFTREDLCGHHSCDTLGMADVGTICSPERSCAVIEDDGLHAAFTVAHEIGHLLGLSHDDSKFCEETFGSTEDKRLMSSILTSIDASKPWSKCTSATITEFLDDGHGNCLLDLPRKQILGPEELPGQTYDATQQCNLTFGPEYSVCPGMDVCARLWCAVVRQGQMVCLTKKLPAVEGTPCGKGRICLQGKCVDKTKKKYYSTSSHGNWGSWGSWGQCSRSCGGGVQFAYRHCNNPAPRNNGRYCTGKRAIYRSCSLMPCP

MMP2 = target: T2, MMP2 (human, UniProt P08253 110-660, limits assumed)
T2 sequence (looked up): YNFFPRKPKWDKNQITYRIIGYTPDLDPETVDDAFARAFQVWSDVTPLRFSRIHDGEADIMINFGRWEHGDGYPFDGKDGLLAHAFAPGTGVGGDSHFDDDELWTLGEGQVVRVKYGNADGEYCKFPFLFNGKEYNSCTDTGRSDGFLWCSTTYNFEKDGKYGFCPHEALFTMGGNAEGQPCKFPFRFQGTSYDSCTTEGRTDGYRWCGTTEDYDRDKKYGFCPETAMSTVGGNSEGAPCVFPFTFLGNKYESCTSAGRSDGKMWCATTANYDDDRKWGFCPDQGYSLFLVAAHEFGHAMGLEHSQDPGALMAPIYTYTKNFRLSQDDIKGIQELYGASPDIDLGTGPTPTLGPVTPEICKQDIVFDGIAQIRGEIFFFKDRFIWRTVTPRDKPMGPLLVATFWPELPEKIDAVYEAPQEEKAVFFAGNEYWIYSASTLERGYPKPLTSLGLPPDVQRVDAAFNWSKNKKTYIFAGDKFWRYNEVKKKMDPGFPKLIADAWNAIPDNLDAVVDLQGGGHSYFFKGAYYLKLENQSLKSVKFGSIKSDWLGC

Cathepsin G = target: T3, Cathepsin G (UniProt P08311 21-244)
T3 sequence (looked up): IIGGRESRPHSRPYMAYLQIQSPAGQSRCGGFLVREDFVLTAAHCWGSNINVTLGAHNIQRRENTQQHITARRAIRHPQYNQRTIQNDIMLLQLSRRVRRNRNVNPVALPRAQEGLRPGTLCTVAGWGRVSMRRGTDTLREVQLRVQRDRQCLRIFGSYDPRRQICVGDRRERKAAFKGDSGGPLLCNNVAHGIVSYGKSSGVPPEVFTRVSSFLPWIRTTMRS

MMP7 = target: T4, MMP7 (UniProt P09237 95-267, limits assumed)
T4 sequence (looked up): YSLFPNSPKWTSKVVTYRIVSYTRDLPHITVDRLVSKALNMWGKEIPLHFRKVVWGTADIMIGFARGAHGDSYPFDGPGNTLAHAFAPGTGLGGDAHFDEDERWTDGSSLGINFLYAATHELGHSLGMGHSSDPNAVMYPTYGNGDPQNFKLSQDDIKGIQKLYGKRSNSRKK

MMP13 = MMP13 (human, UniProt P45452 104-471, limits assumed)
Elastase = target: Elastase
MMP9 = MMP9 (human, UniProt P14780 107-707, limits assumed)
MMP9, sequence (P14780 107-707 limits assumed): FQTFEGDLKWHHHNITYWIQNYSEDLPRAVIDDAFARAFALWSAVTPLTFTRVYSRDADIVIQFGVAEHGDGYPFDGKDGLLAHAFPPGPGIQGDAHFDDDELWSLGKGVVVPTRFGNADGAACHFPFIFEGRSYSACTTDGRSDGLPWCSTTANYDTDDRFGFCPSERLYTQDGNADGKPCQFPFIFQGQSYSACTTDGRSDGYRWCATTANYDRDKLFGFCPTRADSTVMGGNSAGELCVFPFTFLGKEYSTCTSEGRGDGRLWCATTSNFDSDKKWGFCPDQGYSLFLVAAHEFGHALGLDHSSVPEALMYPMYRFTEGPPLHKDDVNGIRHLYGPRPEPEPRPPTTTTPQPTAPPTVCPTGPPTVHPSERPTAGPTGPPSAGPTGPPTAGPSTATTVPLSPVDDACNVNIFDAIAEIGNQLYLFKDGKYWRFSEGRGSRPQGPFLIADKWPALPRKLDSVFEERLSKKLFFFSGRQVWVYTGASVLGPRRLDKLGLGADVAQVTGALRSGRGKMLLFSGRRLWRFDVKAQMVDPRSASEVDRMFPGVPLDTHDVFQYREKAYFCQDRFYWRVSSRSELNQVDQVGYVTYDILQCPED

MMP8 = MMP8 (human, UniProt P22894 101-467, limits assumed)
MMP8, sequence (P22894 101-467 limits assumed): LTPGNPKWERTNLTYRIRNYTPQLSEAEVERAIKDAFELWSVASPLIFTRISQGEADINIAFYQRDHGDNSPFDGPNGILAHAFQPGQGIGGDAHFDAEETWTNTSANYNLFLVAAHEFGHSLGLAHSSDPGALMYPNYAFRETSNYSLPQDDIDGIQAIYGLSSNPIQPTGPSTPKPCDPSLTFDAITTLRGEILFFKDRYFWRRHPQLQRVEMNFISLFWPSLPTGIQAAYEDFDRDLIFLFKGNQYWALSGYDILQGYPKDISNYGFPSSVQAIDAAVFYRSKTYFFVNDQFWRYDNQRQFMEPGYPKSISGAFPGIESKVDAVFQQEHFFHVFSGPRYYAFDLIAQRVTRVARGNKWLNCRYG

ADAMTS4 = target: T5, ADAMTS4 (human, UniProt O75173 213-685, limits assumed)
T5 sequence (looked up): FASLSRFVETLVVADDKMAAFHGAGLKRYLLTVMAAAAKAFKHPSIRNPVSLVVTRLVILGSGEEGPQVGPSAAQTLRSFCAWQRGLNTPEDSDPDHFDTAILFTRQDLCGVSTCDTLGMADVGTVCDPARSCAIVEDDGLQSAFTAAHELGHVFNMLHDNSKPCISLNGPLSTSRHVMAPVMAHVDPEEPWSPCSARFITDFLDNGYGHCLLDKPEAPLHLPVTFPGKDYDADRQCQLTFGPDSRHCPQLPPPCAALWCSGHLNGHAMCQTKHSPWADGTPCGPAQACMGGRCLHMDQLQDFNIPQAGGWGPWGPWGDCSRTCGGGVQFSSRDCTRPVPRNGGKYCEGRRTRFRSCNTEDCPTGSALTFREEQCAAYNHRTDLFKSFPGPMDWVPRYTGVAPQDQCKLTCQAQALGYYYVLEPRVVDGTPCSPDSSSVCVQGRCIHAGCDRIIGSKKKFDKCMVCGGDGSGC

MMP1 = target: T6, MMP1 (human, UniProt P03956 100-469, limits assumed)
T6 sequence (looked up): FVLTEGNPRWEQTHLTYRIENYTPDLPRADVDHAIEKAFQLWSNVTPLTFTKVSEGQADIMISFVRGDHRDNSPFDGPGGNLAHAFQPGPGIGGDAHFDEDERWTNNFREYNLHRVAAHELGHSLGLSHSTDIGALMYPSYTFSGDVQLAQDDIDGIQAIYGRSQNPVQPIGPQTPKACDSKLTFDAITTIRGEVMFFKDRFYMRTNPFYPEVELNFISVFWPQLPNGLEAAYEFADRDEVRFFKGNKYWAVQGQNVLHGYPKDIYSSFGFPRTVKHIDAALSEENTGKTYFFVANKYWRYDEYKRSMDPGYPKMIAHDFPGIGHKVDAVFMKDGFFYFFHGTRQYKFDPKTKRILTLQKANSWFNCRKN

MMP3, sequence (P08254 100-477 limits assumed): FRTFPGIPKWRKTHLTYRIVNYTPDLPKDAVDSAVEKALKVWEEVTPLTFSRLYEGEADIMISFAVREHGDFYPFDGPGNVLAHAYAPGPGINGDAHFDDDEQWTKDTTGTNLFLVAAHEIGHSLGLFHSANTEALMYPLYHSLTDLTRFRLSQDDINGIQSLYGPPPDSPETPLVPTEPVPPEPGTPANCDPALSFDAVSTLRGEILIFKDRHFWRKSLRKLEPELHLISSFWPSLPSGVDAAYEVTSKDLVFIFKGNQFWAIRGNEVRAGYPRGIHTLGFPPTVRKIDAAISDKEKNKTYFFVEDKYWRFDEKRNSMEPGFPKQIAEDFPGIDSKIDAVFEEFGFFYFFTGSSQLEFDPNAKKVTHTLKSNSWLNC

- Protease Inhibition (% of WT) (MMP3): 129 % of WT
- Protease Inhibition (% of WT) (ADAMTS5): 398 % of WT
- Protease Inhibition (% of WT) (MMP2): 36 % of WT
- Protease Inhibition (% of WT) (Cathepsin G): 69 % of WT
- Protease Inhibition (% of WT) (MMP7): 94 % of WT
- Protease Inhibition (% of WT) (MMP13): 90 % of WT
- Protease Inhibition (% of WT) (Elastase): 75 % of WT
- Protease Inhibition (% of WT) (MMP9): 14 % of WT
- Protease Inhibition (% of WT) (MMP8): 38 % of WT
- Protease Inhibition (% of WT) (ADAMTS4): 180 % of WT
- Protease Inhibition (% of WT) (MMP1): 67 % of WT
B1: Variant A2M, bait region SEQ ID NO 28 (other)
chain: SVSGKPQYMVLVPSLLHTETTEKGCVLLSYLNETVTVSASLESVRGNRSLFTDLEAENDVLHCVAFAVPKSSSNEEVMFLTVQVKGPTQEFKKRTTVMVKNEDSLVFVQTDKSIYKPGQTVKFRVVSMDENFHPLNELIPLVYIQDPKGNRIAQWQSFQLEGGLKQFSFPLSSEPFQGSYKVVVQKKSGGRTEHPFTVEEFVLPKFEVQVTVPKIITILEEEMNVSVCGLYTYGKPVPGHVTVSICRKYSDASDCHGEDSQAFCEKFSGQLNSHGCFYQQVKTKVFQLKRKEYEMKLHTEAQIQEEGTVVELTGRQSSEITRTITKLSFVKVDSHFRQGIPFFGQVRLVDGKGVPIPNKVIFIRGNEANYYSNATTDEHGLVQFSINTTNVMGTSLTVRVNYKDRSPCYGYQWVSEEHEEAHHTAYLVFSPSKSFVHLEPMSHELPCGHTQTVQAHYILNGGTLLGLKKLSFYYLIMAKGGIVRTGTHGLLVKQEDMKGHFSISIPVKSDIAPVARLLIYAVLPTGDVIGDSAKYDVENCLANKVDLSFSPSQSLPASHAHLRVTAAPQSVCALRAVDQSVLLMKPDAELSASSVYNLLPEKDLTGFPGPLNDQDDEDCINRHNVYINGITYTPVSSTNEKDMYSFLEDMGLKAFTNSKIRKPKMCPQLEQYEMHGPEGEGEGEFRAAPFLTAIPENFFGVSEDLVVQISELEGRGSPHTKLRKYFPETWIWDLVVVNSAGVAEVGVTVPDTITEWKAGAFCLSEDAGLGISSTASLRAFQPFFVELTMPYSVIRGEAFTLKATVLNYLPKCIRVSVQLEASPAFLAVPVEKEQAPHCICANGRQTVSWAVTPKSLGNVNFTVSAEALESQELCGTEVPSVPEHGRKDTVIKPLLVEPEGLEKETTFNSLLCPSGGEVSEELSLKLPPNVVEESARASVSVLGDILGSAMQNTQNLLQMPYGCGEQNMVLFAPNIYVLDYLNETQQLTPEIKSKAIGYLNTGYQRQLNYKHYDGSYSTFGERYGRNQGNTWLTAFVLKTFAQARAYIFIDEAHITQALIWLSQRQKDNGCFRSSGSLLNNAIKGGVEDEVTLSAYITIALLEIPLTVTHPVVRNALFCLESAWKTAQEGDHGSHVYTKALLAYAFALAGNQDKRKEVLKSLNEEAVKKDNSVHWERPQKPKAPVGHFYEPQAPSAEVEMTSYVLLAYLTAQPAPTSEDLTSATNIVKWITKQQNAQGGFSSTQDTVVALHALSKYGAATFTRTGKAAQVTIQSSGTFSSKFQVDNNNRLLLQQVSLPELPGEYSMKVTGEGCVYLQTSLKYNILPEKEEFPFALGVQTLPQTCDEPKAHTSFQISLSVSYTGSRSASNMAIVDVKMVSGFIPLKPTVKMLERSNHVSRTEVSSNHVLIYLDKVSNQTLSLFFTVLQDVPVRDLKPAIVKVYDYYETDEFAIAEYNAPCSKDLGNADYKDDDDKGASHHHHHH

- Protease Inhibition (% of WT) (MMP3): 86 % of WT
- Protease Inhibition (% of WT) (ADAMTS5): 376 % of WT
- Protease Inhibition (% of WT) (MMP2): 43 % of WT
- Protease Inhibition (% of WT) (Cathepsin G): 117 % of WT
- Protease Inhibition (% of WT) (MMP7): 140 % of WT
- Protease Inhibition (% of WT) (MMP13): 138 % of WT
- Protease Inhibition (% of WT) (Elastase): 100 % of WT
- Protease Inhibition (% of WT) (MMP9): 25 % of WT
- Protease Inhibition (% of WT) (MMP8): 36 % of WT
- Protease Inhibition (% of WT) (ADAMTS4): 144 % of WT
- Protease Inhibition (% of WT) (MMP1): 101 % of WT
B2: Variant A2M, bait region SEQ ID NO 25 (other)
chain: SVSGKPQYMVLVPSLLHTETTEKGCVLLSYLNETVTVSASLESVRGNRSLFTDLEAENDVLHCVAFAVPKSSSNEEVMFLTVQVKGPTQEFKKRTTVMVKNEDSLVFVQTDKSIYKPGQTVKFRVVSMDENFHPLNELIPLVYIQDPKGNRIAQWQSFQLEGGLKQFSFPLSSEPFQGSYKVVVQKKSGGRTEHPFTVEEFVLPKFEVQVTVPKIITILEEEMNVSVCGLYTYGKPVPGHVTVSICRKYSDASDCHGEDSQAFCEKFSGQLNSHGCFYQQVKTKVFQLKRKEYEMKLHTEAQIQEEGTVVELTGRQSSEITRTITKLSFVKVDSHFRQGIPFFGQVRLVDGKGVPIPNKVIFIRGNEANYYSNATTDEHGLVQFSINTTNVMGTSLTVRVNYKDRSPCYGYQWVSEEHEEAHHTAYLVFSPSKSFVHLEPMSHELPCGHTQTVQAHYILNGGTLLGLKKLSFYYLIMAKGGIVRTGTHGLLVKQEDMKGHFSISIPVKSDIAPVARLLIYAVLPTGDVIGDSAKYDVENCLANKVDLSFSPSQSLPASHAHLRVTAAPQSVCALRAVDQSVLLMKPDAELSASSVYNLLPEKDLTGFPGPLNDQDDEDCINRHNVYINGITYTPVSSTNEKDMYSFLEDMGLKAFTNSKIRKPKMCPQLEHGPEGEGEGEGIPENFYGVSEDLYTASELEGRGSVEEPHTKLRKYFPETWIWDLVVVNSAGVAEVGVTVPDTITEWKAGAFCLSEDAGLGISSTASLRAFQPFFVELTMPYSVIRGEAFTLKATVLNYLPKCIRVSVQLEASPAFLAVPVEKEQAPHCICANGRQTVSWAVTPKSLGNVNFTVSAEALESQELCGTEVPSVPEHGRKDTVIKPLLVEPEGLEKETTFNSLLCPSGGEVSEELSLKLPPNVVEESARASVSVLGDILGSAMQNTQNLLQMPYGCGEQNMVLFAPNIYVLDYLNETQQLTPEIKSKAIGYLNTGYQRQLNYKHYDGSYSTFGERYGRNQGNTWLTAFVLKTFAQARAYIFIDEAHITQALIWLSQRQKDNGCFRSSGSLLNNAIKGGVEDEVTLSAYITIALLEIPLTVTHPVVRNALFCLESAWKTAQEGDHGSHVYTKALLAYAFALAGNQDKRKEVLKSLNEEAVKKDNSVHWERPQKPKAPVGHFYEPQAPSAEVEMTSYVLLAYLTAQPAPTSEDLTSATNIVKWITKQQNAQGGFSSTQDTVVALHALSKYGAATFTRTGKAAQVTIQSSGTFSSKFQVDNNNRLLLQQVSLPELPGEYSMKVTGEGCVYLQTSLKYNILPEKEEFPFALGVQTLPQTCDEPKAHTSFQISLSVSYTGSRSASNMAIVDVKMVSGFIPLKPTVKMLERSNHVSRTEVSSNHVLIYLDKVSNQTLSLFFTVLQDVPVRDLKPAIVKVYDYYETDEFAIAEYNAPCSKDLGNADYKDDDDKGASHHHHHH
